Assay results: patent publication US20190015483A1 (CSL BEHRING RECOMBINANT FACILITY, published 2019)
Positions count from the first letter of the chain named. Numbers in names are those of the source.

T1: recombinant Factor VIII (CSL627, rVIII-SingleChain) (Homo sapiens (Human), UniProt P00451 20-2351)
T1 construct: also called FVIII
T1 sequence: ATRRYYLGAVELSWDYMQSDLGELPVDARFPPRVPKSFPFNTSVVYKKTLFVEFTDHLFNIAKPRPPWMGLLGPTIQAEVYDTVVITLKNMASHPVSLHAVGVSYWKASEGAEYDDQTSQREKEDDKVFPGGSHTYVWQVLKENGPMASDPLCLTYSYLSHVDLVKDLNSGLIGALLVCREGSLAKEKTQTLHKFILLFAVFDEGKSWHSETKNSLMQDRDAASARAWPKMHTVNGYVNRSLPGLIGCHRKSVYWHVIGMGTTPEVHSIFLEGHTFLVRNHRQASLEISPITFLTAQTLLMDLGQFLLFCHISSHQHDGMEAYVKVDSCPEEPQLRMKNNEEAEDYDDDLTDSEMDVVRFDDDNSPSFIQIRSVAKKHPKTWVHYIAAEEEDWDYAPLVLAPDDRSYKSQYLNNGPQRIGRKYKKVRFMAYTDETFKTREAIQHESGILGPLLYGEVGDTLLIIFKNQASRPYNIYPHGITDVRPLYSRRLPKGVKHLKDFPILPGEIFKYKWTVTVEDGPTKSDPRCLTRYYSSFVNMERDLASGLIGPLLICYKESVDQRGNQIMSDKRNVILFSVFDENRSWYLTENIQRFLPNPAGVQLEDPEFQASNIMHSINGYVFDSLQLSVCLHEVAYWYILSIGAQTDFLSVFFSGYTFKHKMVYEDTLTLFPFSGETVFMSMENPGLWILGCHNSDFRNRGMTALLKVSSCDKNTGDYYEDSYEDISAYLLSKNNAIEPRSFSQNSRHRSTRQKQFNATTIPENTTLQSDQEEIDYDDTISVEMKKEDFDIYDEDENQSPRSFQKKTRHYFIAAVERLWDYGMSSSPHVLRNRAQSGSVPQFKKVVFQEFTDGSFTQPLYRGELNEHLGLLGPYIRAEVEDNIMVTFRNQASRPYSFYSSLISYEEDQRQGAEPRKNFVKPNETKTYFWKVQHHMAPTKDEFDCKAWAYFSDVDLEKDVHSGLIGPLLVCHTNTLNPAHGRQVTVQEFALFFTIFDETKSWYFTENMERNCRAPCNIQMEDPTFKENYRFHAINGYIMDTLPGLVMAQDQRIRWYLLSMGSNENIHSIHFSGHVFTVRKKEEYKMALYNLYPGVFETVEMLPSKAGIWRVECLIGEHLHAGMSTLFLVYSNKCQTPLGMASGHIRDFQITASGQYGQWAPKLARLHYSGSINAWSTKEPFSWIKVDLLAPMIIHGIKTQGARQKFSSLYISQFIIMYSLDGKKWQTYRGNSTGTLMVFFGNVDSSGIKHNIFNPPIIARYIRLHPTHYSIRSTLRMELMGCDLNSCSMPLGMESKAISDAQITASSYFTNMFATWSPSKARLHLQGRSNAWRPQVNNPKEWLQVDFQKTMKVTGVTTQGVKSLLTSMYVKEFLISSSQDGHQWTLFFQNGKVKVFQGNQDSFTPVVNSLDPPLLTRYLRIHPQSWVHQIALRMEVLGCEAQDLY

B1: Hu-vWF[764-1270]-8His S764P-L765E-S766I (other)
chain: PEICRPPMVKLVCPADNLRAEGLECTKTCQNYDLECMSMGCVSGCLCPPGMVRHENRCVALERCPCFHQGKEYAPGETVKIGCNTCVCRDRKWNCTDHVCDATCSTIGMAHYLTFDGLKYLFPGECQYVLVQDYCGSNPGTFRILVGNKGCSHPSVKCKKRVTILVEGGEIELFDGEVNVKRPMKDETHFEVVESGRYIILLLGKALSVVWDRHLSISVVLKQTYQEKVCGLCGNFDGIQNNDLTSSNLQVEEDPVDFGNSWKVSSQCADTRKVPLDSSPATCHNNIMKQTMVDSSCRILTSDVFQDCNKLVDPEPYLDVCIYDTCSCESIGDCACFCDTIAAYAHVCAQHGKVVTWRTATLCPQSCEERNLRENGYECEWRYNSCAPACQVTCQHPEPLACPVQCVEGCHAHCPPGKILDELLQTCVDPEDCPVCEVAGRRFASGKKVTLNPSDPEHCQICHCDVVNLTCEACQEPGGLVVPPTDAPVSPTTLYVEDISEPPLHDFHHHHHHHH
B2: Hu-vWF[764-1270]-8His S764P-L765V-S766I (other)
chain: B1 chain with E2V
B3: Hu-vWF[764-1270]-8His S764P-L765R-S766I (other)
chain: B1 chain with E2R
B4: Hu-vWF[764-1270]-8His S766W-L809T (other)
chain: B1 chain with P1S, E2L, I3W, L46T
B5: Hu-vWF[764-1270]-8His S764P-L765Y-S766I (other)
chain: B1 chain with E2Y
B6: Hu-vWF[764-1270]-8His S764P-L765W-S766I (other)
chain: B1 chain with E2W
B7: Hu-vWF[764-1270]-8His S766W-L809E (other)
chain: B1 chain with P1S, E2L, I3W, L46E
B8: Hu-vWF[764-1270]-8His S766W-L809Y (other)
chain: B1 chain with P1S, E2L, I3W, L46Y
B9: Hu-vWF[764-1270]-8His S766W-L809N (other)
chain: B1 chain with P1S, E2L, I3W, L46N
B10: Hu-vWF[764-1270]-8His S766W-L809V (other)
chain: B1 chain with P1S, E2L, I3W, L46V
B11: Hu-vWF[764-1270]-8His S764P-L765I-S766I (other)
chain: B1 chain with E2I
B12: Hu-vWF[764-1270]-8His S766W-L809W (other)
chain: B1 chain with P1S, E2L, I3W, L46W
B13: Hu-vWF[764-1270]-8His S764P-L765G-S766I (other)
chain: B1 chain with E2G
B14: Hu-vWF[764-1270]-8His S766W-L809Q (other)
chain: B1 chain with P1S, E2L, I3W, L46Q
B15: Hu-vWF[764-1270]-8His S766W-S806E (other)
chain: B1 chain with P1S, E2L, I3W, S43E
B16: Hu-vWF[764-1270]-8His S766W-L809M (other)
chain: B1 chain with P1S, E2L, I3W, L46M
B17: Hu-vWF[764-1270]-8His S766W-L809G (other)
chain: B1 chain with P1S, E2L, I3W, L46G
B18: Hu-vWF[764-1270]-8His S766W-L809H (other)
chain: B1 chain with P1S, E2L, I3W, L46H
B19: Hu-vWF[764-1270]-8His S764P-L765H-S766I (other)
chain: B1 chain with E2H
B20: Hu-vWF[764-1270]-8His S766W-L809A (other)
chain: B1 chain with P1S, E2L, I3W, L46A
B21: Hu-vWF[764-1270]-8His S766W-L809I (other)
chain: B1 chain with P1S, E2L, I3W, L46I
B22: Hu-vWF[764-1270]-8His S766W-L809D (other)
chain: B1 chain with P1S, E2L, I3W, L46D
B23: Hu-vWF[764-1270]-8His S764P-L765Q-S766I (other)
chain: B1 chain with E2Q
B24: Hu-vWF[764-1270]-8His S766W-L809P (other)
chain: B1 chain with P1S, E2L, I3W, L46P
B25: Hu-vWF[764-1270]-8His S766W-L809F (other)
chain: B1 chain with P1S, E2L, I3W, L46F
B26: Hu-vWF[764-1270]-8His S766W-L809K (other)
chain: B1 chain with P1S, E2L, I3W, L46K
B27: Hu-vWF[764-1270]-8His S766W-S806D (other)
chain: B1 chain with P1S, E2L, I3W, S43D
B28: Hu-vWF[764-1270]-8His S764P-L765M-S766I (other)
chain: B1 chain with E2M
B29: Hu-vWF[764-1270]-8His S764P-L765T-S766I (other)
chain: B1 chain with E2T
B30: Hu-vWF[764-1270]-8His S764P-L765K-S766I (other)
chain: B1 chain with E2K
B31: Hu-vWF[764-1270]-8His S766W-L809S (other)
chain: B1 chain with P1S, E2L, I3W, L46S
B32: Hu-vWF[764-1270]-8His S766W-L809R (other)
chain: B1 chain with P1S, E2L, I3W, L46R
B33: Hu-vWF[764-1270]-8His S766W-S806A (other)
chain: B1 chain with P1S, E2L, I3W, S43A

biological target: T1, recombinant Factor VIII (CSL627, …); assay: SPR, anti-His capture, FVIII injected, 37 C
Protocol: Binding kinetics were investigated by surface plasmon resonance using a Biacore 4000 biosensor at 37° C. Each mutant was captured from cell culture medium to a density of 40-150 RU on a CM-5 sensor chip pre-immobilised with anti-His antibody (14,000 RU). In an initial screening study, FVIII was injected over the captured mutants for 5 minutes at 1 nM and dissociation monitored for 5 minutes.
All sensorgrams were double referenced by subtraction of signals from a reference spot (containing only immobilised anti His antibody) and from a blank injection. Binding kinetics were determined by fitting the double referenced sensorgrams to a 1:1 kinetic model.

Row | Kd [nM] | koff [s⁻¹] | kon [M⁻¹ s⁻¹] | binding result | Binder
1 | 53.6 | 0.055 | 1.03e+06 |  | B1
2 | 0.00207 | 0.000116 | 5.62e+07 |  | B2
3 | 0.218 | 0.0173 | 7.96e+07 |  | B3
4 | 0.161 | 0.00141 | 8.72e+06 |  | B4
5 | 0.0367 | 0.0019 | 5.17e+07 |  | B5
6 | 0.132 | 0.000146 | 1.11e+06 |  | B6
7 | 0.265 | 0.00155 | 5.84e+06 |  | B7
8 | 0.5 | 0.00339 | 6.77e+06 |  | B8
9 | 0.369 | 0.00227 | 6.15e+06 |  | B9
10 | 0.122 | 0.00094 | 7.7e+06 |  | B10
11 | 1.62 | 0.0103 | 6.34e+06 |  | B11
12 | 0.648 | 0.00312 | 4.81e+06 |  | B12
13 | 0.241 | 0.0122 | 5.04e+07 |  | B13
14 | 0.212 | 0.00113 | 5.33e+06 |  | B14
15 | 0.217 | 0.00129 | 5.93e+06 |  | B15
16 | 0.117 | 0.000581 | 4.99e+06 |  | B16
17 | 0.363 | 0.00226 | 6.21e+06 |  | B17

Row | Kd [nM] | koff [s⁻¹] | kon [M⁻¹ s⁻¹] | binding result | Binder
18 | 0.397 | 0.00114 | 2.87e+06 |  | B18
19 | 0.0424 | 6.6e-05 | 1.56e+06 |  | B19
20 | 0.258 | 0.00115 | 4.45e+06 |  | B20
21 | 0.103 | 0.000541 | 5.23e+06 |  | B21
22 | 0.425 | 0.0019 | 4.46e+06 |  | B22
23 | 0.248 | 0.000286 | 1.15e+06 |  | B23
24 |  |  |  | no binding | B24
25 | 0.228 | 0.000744 | 3.26e+06 |  | B25
26 | 0.219 | 0.00153 | 7e+06 |  | B26
27 | 0.164 | 0.000688 | 4.2e+06 |  | B27
28 | 0.00241 | 0.000137 | 5.69e+07 |  | B28
29 | 0.0287 | 0.00331 | 1.15e+08 |  | B29
30 | 0.0218 | 0.0015 | 6.88e+07 |  | B30
31 | 0.22 | 0.00144 | 6.54e+06 |  | B31
32 | 0.352 | 0.00213 | 6.07e+06 |  | B32
33 | 0.0778 | 0.000376 | 4.84e+06 |  | B33
